Results published in patent publication US20250136687A1 (SHANDONG SIMCERE BIOPHARMACEUTICAL, published 2025).
Read-outs that look alike come from different tables or passages of the source.

B1: 7-35.6 human-murine chimeric antibody (antibody, human IgG1, lambda, V domains shown)
VH: EVQLVESGGGLVQPKGSLKLSCAASGFTFNTYAMNWVRQAPGKGLEWVGRIRSKINNYATYYGDSVKDRFTISRDDSQSMFYLQMNNLKTEDTAMYYCVIHENYGSISWFAYWGQGTLVTVSA
VL: QAVVTQESTLTTSPGETVTLTCRSSTGAVTTSNYANWVQEKPDHLFTGLIGGTNNRAPGVPARFSGSLIGDKAALTITGAQTEDEAIYFCALWYSNHWVFGGGTKLTVLG
notes: Human IgG1 chimera
B2: SP34-hIgG1 (antibody)
heavy: not shown
light: QAVVTQESALTTSPGETVTLTCRSSTGAVTTSNYANWVQEKPDHLFTGLIGGTNKRAPGVPARFSGSLIGDKAALTITGAQTEDEAIYFCALWYSNLWVFGGGTKLTVLRTVAAPSVFIFPPSDEQLKSGTASVVCLLNNFYPREAKVQWKVDNALQSGNSQESVTEQDSKDSTYSLSSTLTLSKADYEKHKVYACEVTHQGLSSPVTKSFNRGEC
notes: Positive control

Experiments:
[1] = biological target: T1, recombinant human CD3ε-ECD His protein (human, UniProt P07766 23-126); experiment: SPR (Biacore), antibody captured on Protein A chip
T1 construct: extracellular domain; also called human CD3ε-His; CD3ε antigen protein; not shown: His tag
T1 sequence (P07766 23-126): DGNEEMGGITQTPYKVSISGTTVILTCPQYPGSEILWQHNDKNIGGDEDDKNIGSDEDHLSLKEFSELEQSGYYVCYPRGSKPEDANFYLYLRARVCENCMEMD
Procedure: Sample buffer and running buffer were HBS-EP+(10 mM HEPES, 150 mM NaCl, 3 mM EDTA, 0.05% surfactant P20) (GE Healthcare; BR-1006-69). The flow-through cell was set to 25° C. The sample block was set to 16° C. Both were pretreated with the running buffer. In each cycle, the antibody to be detected was first captured with a Protein A chip, and then a single concentration of CD3ε antigen protein (purchased from Sino Biological, Inc. (China), catalog number: 10977-H08H) was injected. The binding and dissociation processes of the antibody and the antigen protein were recorded, and finally a glycine solution (pH 1.5, GE Healthcare; BR-1003-54) was used to complete chip regeneration. The binding was measured by injecting different concentrations of recombinant human CD3ε-ECD His proteins in a solution for 240 s with a flow rate of 30 μL/min. The concentration started from 200 nM (see the detailed results for the actual concentration in the test) and was diluted at 1:1, making a total of 5 concentrations. The dissociation phase was monitored for up to 600 s and was triggered by switching from sample solution to running buffer. The surface was regenerated by washing with a 10 mM glycine solution (pH 1.5) for 30 s at a flow rate of 30 μL/min. Bulk refractive index difference was corrected by subtracting the response obtained from the goat anti-human Fc surface. Blank injection was also subtracted (=double reference). For calculation of apparent KD and other kinetic parameters, Langmuir 1:1 model was used.

[2] = biological target: T2, human CD3 on the cell surface (Jurkat cells, expanded human T cells, Jurkat-Lucia NFAT cells, human PBMC) (human, UniProt P07766 23-207; P04234 22-171; P09693 23-182); experiment: FACS, Jurkat cells
T2 construct: whole, on cells; Endogenous CD3 within the TCR-CD3 complex on cells (also zeta chains and TCR); the cell type is named under assay
T2 sequence (P07766 23-207, chain 1 of 3): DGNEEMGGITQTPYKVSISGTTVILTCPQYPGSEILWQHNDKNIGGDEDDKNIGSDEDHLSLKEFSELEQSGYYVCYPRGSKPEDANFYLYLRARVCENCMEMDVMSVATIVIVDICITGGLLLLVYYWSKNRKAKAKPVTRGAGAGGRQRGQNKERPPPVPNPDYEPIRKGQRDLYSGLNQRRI
T2 sequence (P04234 22-171, chain 2 of 3): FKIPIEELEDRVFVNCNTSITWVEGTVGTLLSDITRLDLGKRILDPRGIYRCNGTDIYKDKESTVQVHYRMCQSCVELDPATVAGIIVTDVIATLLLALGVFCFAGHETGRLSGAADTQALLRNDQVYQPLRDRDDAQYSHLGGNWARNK
T2 sequence (P09693 23-182, chain 3 of 3): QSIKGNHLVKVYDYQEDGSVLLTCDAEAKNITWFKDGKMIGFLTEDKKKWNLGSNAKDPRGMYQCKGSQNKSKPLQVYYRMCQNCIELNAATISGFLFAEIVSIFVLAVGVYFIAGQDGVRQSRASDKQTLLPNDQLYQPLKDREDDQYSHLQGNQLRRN
Procedure: (§1) The binding of the chimeric antibodies to CD3 on the cell surface was analyzed by detecting the binding of the antibodies to Jurkat cells and human T cells. Suspension cells Jurkat cells were scale-up cultured in T-75 cell culture flasks to the logarithmic growth phase, the supernatant of the medium was discarded by centrifugation, and the cell pellet was washed 2 times with PBS for later use. The expanded human T cells were washed 2 times with PBS for later use. After counting the cells in the previous step, the cell pellet was resuspended with [PBS+2% (w/w) BSA] blocking solution to 4×10⁶ cells/ml, and added to a 96-well FACS reaction plate at 50 μl/well, and then the chimeric antibody to be tested was added at 50 μl/well, and incubated at 4° C. for 1 h. The cells were centrifuged and washed 3 times with a PBS buffer. […] The cells were centrifuged and washed 5 times with PBS, and FACS (FACS Canto™, purchased from BD Company) was used for detection and result analysis. Data analysis was performed by software (CellQuest) to obtain the mean fluorescence […] (MFI) of the cells. And then software (GraphPad Prism8) was used for analysis, data fitting, and EC50 value calculation. The same method was used to simultaneously detect the binding of the chimeric antibodies to endogenous CD3 negative cells MOLT4 cells.

[3] = biological target: T3, cynomolgus monkey CD3 on the surface of expanded monkey T cells (cynomolgus monkey, UniProt Q95LI5 22-198; Q95LI8 22-171; Q95LI7 23-181); experiment: FACS, expanded monkey T cells
T3 construct: whole, on cells; Endogenous CD3 within the TCR-CD3 complex on T cells expanded from cynomolgus monkey PBMC
T3 sequence (Q95LI5 22-198, chain 1 of 3): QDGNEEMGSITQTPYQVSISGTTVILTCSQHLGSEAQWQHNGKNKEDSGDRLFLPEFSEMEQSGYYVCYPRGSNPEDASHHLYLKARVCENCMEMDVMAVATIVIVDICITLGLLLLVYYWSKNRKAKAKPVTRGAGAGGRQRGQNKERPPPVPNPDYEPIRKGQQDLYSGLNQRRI
T3 sequence (Q95LI8 22-171, chain 2 of 3): as the sequence (P04234 22-171, chain 2 of 3) above, with I5V, N15K, I20V, S32T, D33N, I34N, T64A, S74N, V83L, H141R counted along it
T3 sequence (Q95LI7 23-181, chain 3 of 3): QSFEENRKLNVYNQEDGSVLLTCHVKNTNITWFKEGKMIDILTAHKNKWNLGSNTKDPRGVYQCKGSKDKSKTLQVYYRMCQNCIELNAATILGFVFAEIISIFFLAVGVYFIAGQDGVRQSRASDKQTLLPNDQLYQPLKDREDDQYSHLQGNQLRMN
Procedure: as §1, with “MOLT4 cells. […]” for “MOLT4 cells.”

[4] = biological target: T2, human CD3 on the cell surface (Jurkat …); experiment: FACS, expanded human T cells
Procedure: as §1

[5] = biological target: T2, human CD3 on the cell surface (Jurkat …); experiment: cell-based or functional assay
[6] = biological target: T3, cynomolgus monkey CD3 on the surface of …; experiment: FACS, expanded monkey T cells; remark: listed apart in the source
[7] = biological target: T2, human CD3 on the cell surface (Jurkat …); experiment: FACS, Jurkat cells; remark: listed apart in the source
Procedure: Suspension cells Jurkat cells (purchased from Cell bank of Chinese Academy of Sciences) were scale-up cultured in T-175 cell culture flasks to the logarithmic growth phase, the supernatant of the medium was discarded by centrifugation, and the cell pellet was washed 2 times with PBS. After counting the cells in the previous step, the cell pellet was resuspended with [PBS+2% (w/v) FBS] blocking solution to 4×10⁶ cells/ml, and added to a 96-well FACS reaction plate at 50 μl/well, the supernatant was removed by centrifugation, detection antibodies (initial concentration of […], gradient dilution at 1:5) and an IgG negative control were added at 100 μl/well, the cells were uniformly mixed, and incubated on ice for 1 h. The cells were centrifuged and washed 3 times with a PBS buffer. […] The cells were centrifuged and washed 5 times with a PBS buffer, and FACS (FACS Canto II, purchased from BD Company) was used for detection and result analysis. Data analysis was performed by software (CellQuest) to obtain the mean fluorescence intensity (MFI) of the cells. And then software (GraphPad Prism8) was used for analysis, data fitting, and EC50 value calculation.

[8] = biological target: T2, human CD3 on the cell surface (Jurkat …); experiment: FACS, expanded human T cells; remark: listed apart in the source
Procedure: as §1

[9] = biological target: T2, human CD3 on the cell surface (Jurkat …); experiment: FACS, expanded human T cells; remark: listed apart in the source
[10] = biological target: T3, cynomolgus monkey CD3 on the surface of …; experiment: FACS, expanded monkey T cells; remark: listed apart in the source
Procedure: as §1
FACS detection and data analysis were performed on the cryopreserved monkey T cells of Example 2.4 according to the method in Example 5.1.

[11] = biological target: T2, human CD3 on the cell surface (Jurkat …); experiment: FACS, Jurkat cells; remark: listed apart in the source
Procedure: as §1

Row | Binder | Kd [1] [nM] | koff [1] [s⁻¹] | kon [1] [M⁻¹ s⁻¹] | EC50 [2] [nM] | MFI_Max [2] [MFI] | EC50 [3] [nM] | EC50 [4] [nM] | MFI_Max [4] [MFI] | EC50 (nM), luciferase reporter, Jurkat-Lucia NFAT cells [5] [nM] | Maximum response value (RLU) [5] [RLU] | EC50 [6] [nM] | EC50 [7] [nM] | EC50 [8] [nM] | MFI_Max [8] [MFI] | EC50 [9] [nM] | EC50 [10] [nM] | MFI_Max [10] [MFI] | EC50 [11] [nM] | MFI_Max [11] [MFI]
1 | B1 | 0.959 | 0.000261 | 272000 | 3.37 | 2800 | 2.74 | 4.62 | 3800 | 11.8 | 8570 | – | – | – | – | – | – | – | – | –
2 | B2 | – | – | – | – | – | – | – | – | – | – | 0.49 | 0.45 | 0.43 | 43100 | 2.54 | 0.27 | 64700 | 0.13 | 7020
